Source: patent US20210403582A1 (JACOBIO PHARMACEUTICALS, published 2021)
Residue numbers refer to the chain shown, from its start.

B1: H2L2 (antibody, human IgG1, kappa)
heavy: not shown
light: DIHMTQSPSSLSASVGDRVTITCRASENIYSYLAWYQQKPGKSPKLLVYNAKTLAEGVPSRFSGSGSGTDFTLTISSLQPEDFATYYCQHHYVTPLTFGQGTKLEIKRTVAAPSVFIFPPSDEQLKSGTASVVCLLNNFYPREAKVQWKVDNALQSGNSQESVTEQDSKDSTYSLSSTLTLSKADYEKHKVYACEVTHQGLSSPVTKSFNRGEC
notes: Humanized, human IgG1 / kappa
B2: H2L1 (antibody, human IgG1, kappa)
heavy: not shown
light: B1 light with H3Q
notes: Humanized, human IgG1 / kappa
B3: H3L3 (antibody, human IgG1, kappa, N297A, V domains shown)
VH: EVMLVESGGGLVQPGGSLRLSCAASGFIFSSYAMSWVRQAPETRLEWVATISSGGSNTYSPDTVKGRFTISRDNSKNTLYLQMNSLRAEDTAMYYCARYYGYYFDFWGQGTLLTVSS
VL: DIHMTQSPSSLSASVGDRVTITCRASENIYSYLAWYQQKPGKSPQLLVYNAKTLAEGVPSRFSGSGSGTQFTLTISSLQPEDFATYYCQHHYVTPLTFGQGTKLEIKR
notes: Humanized, human IgG1 / kappa
B4: 38E HuH2L4 (antibody, human IgG1, kappa, V domains shown)
VH: B3 VH with E42G, R44G
VL: B3 VL with P40Q, T74K, S76N
notes: Humanized, human IgG1 / kappa
B5: 38E HuH1L1 (antibody, human IgG1, kappa, N297A)
heavy: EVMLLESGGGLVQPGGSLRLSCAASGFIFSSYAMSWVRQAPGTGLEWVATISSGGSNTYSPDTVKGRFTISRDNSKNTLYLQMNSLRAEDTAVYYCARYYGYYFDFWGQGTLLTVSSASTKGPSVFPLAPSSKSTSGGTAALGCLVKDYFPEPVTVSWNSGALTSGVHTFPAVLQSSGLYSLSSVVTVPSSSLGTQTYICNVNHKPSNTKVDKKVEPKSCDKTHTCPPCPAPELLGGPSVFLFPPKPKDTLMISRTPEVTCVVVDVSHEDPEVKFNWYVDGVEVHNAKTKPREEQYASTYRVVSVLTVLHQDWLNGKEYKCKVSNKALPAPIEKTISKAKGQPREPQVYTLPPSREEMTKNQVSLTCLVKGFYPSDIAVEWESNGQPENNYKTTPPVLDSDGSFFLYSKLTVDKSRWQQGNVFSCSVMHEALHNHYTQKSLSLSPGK
light: B1 light with H3Q
notes: Humanized, human IgG1 / kappa
B6: H1L3 (antibody, human IgG1, kappa, N297A, V domains shown)
VH: B3 VH with V5L, E42G, R44G, M93V
VL: B3 VL
notes: Humanized, human IgG1 / kappa
B7: H1L2 (antibody, human IgG1, kappa, N297A)
heavy: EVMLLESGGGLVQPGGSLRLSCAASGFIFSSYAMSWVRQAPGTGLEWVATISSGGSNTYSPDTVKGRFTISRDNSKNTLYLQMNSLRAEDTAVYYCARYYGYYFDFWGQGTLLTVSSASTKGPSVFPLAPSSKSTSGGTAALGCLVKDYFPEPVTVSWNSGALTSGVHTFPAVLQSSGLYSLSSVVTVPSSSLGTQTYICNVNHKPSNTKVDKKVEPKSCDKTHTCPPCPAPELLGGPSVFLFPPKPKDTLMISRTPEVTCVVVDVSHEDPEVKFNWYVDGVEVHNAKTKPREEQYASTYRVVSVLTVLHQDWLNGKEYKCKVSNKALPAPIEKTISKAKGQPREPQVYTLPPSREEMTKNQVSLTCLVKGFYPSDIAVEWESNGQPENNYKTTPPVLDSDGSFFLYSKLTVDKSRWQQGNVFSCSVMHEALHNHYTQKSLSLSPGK
light: B1 light
notes: Humanized, human IgG1 / kappa
B8: H3L1 (antibody, human IgG1, kappa, N297A)
heavy: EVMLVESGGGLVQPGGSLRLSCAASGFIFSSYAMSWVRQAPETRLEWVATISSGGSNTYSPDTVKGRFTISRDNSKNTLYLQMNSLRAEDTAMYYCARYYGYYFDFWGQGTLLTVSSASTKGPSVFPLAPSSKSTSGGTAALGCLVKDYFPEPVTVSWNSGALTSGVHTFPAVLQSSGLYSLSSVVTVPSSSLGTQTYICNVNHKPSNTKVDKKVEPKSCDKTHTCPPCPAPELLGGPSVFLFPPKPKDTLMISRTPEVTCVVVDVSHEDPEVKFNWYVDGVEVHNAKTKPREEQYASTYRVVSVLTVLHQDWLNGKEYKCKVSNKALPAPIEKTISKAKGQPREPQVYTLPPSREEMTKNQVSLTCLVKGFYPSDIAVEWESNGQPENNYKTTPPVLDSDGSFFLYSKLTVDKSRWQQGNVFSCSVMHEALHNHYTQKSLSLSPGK
light: B1 light with H3Q
notes: Humanized, human IgG1 / kappa
B9: H2L3 (antibody, human IgG1, kappa, V domains shown)
VH: B3 VH with E42G, R44G
VL: B3 VL
notes: Humanized, human IgG1 / kappa
B10: 38E HuH1L4 (antibody, human IgG1, kappa, N297A, V domains shown)
VH: B3 VH with V5L, E42G, R44G, M93V
VL: B3 VL with P40Q, T74K, S76N
notes: Humanized, human IgG1 / kappa
B11: 38E10E1C11 chimeric antibody (antibody, human IgG1, kappa)
heavy: not shown
light: DIHMTQSPASLSASVGETVTITCRASENIYSYLAWYQQKQGKSPQLLVYNAKTLAEGVPSRFSGSGSGTQFSLKINSLQPEDFGSYYCQHHYVTPLTFGAGTKLELKRTVAAPSVFIFPPSDEQLKSGTASVVCLLNNFYPREAKVQWKVDNALQSGNSQESVTEQDSKDSTYSLSSTLTLSKADYEKHKVYACEVTHQGLSSPVTKSFNRGEC
notes: Mouse variable regions of 38E10E1C11 with human IgG1 / kappa constant regions; also called 38E Chimeric; 38E chimeric antibody

These binders were tested against T1, human LIF protein (human, UniProt P15018 23-202) (assay: ELISA, antigen coated 0.5 ug/ml, 293S supernatant non-heated, antibody 0.04 ug/mL).
T1 construct: Bought recombinant protein (Sino Biological / Yiqiao Shenzhou 14890-HNAH) in most assays; also called recombinant human LIF protein; rhLIF
T1 sequence (P15018 23-202 limits assumed): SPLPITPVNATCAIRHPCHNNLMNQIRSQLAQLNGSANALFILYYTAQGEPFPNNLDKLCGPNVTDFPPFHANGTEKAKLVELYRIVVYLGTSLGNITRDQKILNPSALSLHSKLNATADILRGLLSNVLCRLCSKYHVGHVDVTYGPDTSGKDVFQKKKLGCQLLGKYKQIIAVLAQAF
Protocol: (§1) Each well was coated with 100 μL of 0.5 μg/ml antigen and incubate overnight at 4° C., and the plates were washed three times with 300 μL of Wash Buffer. The plates were closed with 200 μL of Closure Buffer (2% bovine serum albumin) for 60 min at room temperature. The plates were washed three times with 300 μL of Wash Buffer. 100 μL of diluted anti-LIF antibody at different concentrations was added to each well and incubate for 1 hour at room temperature. The plates were washed 4 times with 300 μL of Wash Buffer. 100 μL of HRP-labeled goat anti-human Fc secondary antibody at a dilution of 1:5000 was added and incubate for 1 hour at room temperature. The plates were washed 6 times with 300 μL of Wash Buffer. 100 μL of H₂O₂-Amplx Color Development Solution was added for developing the color for 10 min at room temperature under dark conditions. The OD 450 value was read by an enzyme marker. Heat treatment: the expression medium was heated on the PCR machine at 70° C. for 5 min and then rapidly cooled to room temperature. Perform subsequent ELISA assays as above.

| Binder | ELISA signal |
| --- | --- |
| B1 | 6520 |
| B2 | 6370 |
| B3 | 6760 |
| B4 | 6880 |
| B5 | 6850 |
| B6 | 6440 |
| B7 | 6680 |
| B8 | 6220 |
| B9 | 6270 |
| B10 | 7320 |
| B11 | 6780 |

What follows are binders tested against T1, human LIF protein (assay: ELISA, antigen coated 0.5 ug/ml, 293S supernatant non-heated, antibody 0.2 ug/mL).
Protocol: as §1

| Binder | ELISA signal |
| --- | --- |
| B1 | 10300 |
| B2 | 10700 |
| B3 | 11000 |
| B4 | 10900 |
| B5 | 10600 |
| B6 | 10800 |
| B7 | 11200 |
| B8 | 10000 |
| B9 | 11300 |
| B10 | 10900 |
| B11 | 10400 |

The binders below were run against T1, human LIF protein (assay: ELISA, antigen coated 0.5 ug/ml, 293S supernatant heated 70 C 5 min, antibody 0.04 ug/mL).
Protocol: as §1

| Binder | ELISA signal |
| --- | --- |
| B1 | 5260 |
| B2 | 5440 |
| B3 | 5390 |
| B4 | 5700 |
| B5 | 5970 |
| B6 | 4980 |
| B7 | 5490 |
| B8 | 5190 |
| B9 | 4870 |
| B10 | 5670 |
| B11 | 4730 |

The binders below were run against T1, human LIF protein (assay: ELISA, antigen coated 0.5 ug/ml, 293S supernatant heated 70 C 5 min, antibody 0.2 ug/mL).
Protocol: as §1

| Binder | ELISA signal |
| --- | --- |
| B1 | 8720 |
| B2 | 8560 |
| B3 | 8900 |
| B4 | 9230 |
| B5 | 9010 |
| B6 | 8750 |
| B7 | 8920 |
| B8 | 7900 |
| B9 | 9150 |
| B10 | 9700 |
| B11 | 8840 |

What follows are binders tested against T1, human LIF protein (assay: BLI (Gator), antibody on anti-human Fc biosensor, human LIF in solution).
Protocol: The affinity of anti-LIF antibody to human LIF protein was determined using Gator. The anti-human LIF antibody was first diluted to 5 ug/mL with PBS and then added to A-F wells in second column of the 96-well plate (200 μL per well). […] PBS was added to A-F wells in the first and third columns (200 μL per well). The 96-well plates were placed into the instrument and detected with anti-human Fc biosensor.

| Binder | Kd [nM] | koff [s⁻¹] | kon [M⁻¹ s⁻¹] |
| --- | --- | --- | --- |
| B5 | 0.0817 | 4.65e-05 | 569000 |
| B11 | 0.0233 | 1.57e-05 | 677000 |

These binders were tested against T1, human LIF protein (assay: ELISA, antigen coated 0.5 ug/ml, 293S supernatant heated 70 C 5 min, antibody 1 ug/mL).
Protocol: as §1

| Binder | ELISA signal |
| --- | --- |
| B1 | 9780 |
| B2 | 9650 |
| B3 | 9540 |
| B4 | 10600 |
| B5 | 9800 |
| B6 | 9630 |
| B7 | 9830 |
| B8 | 9130 |
| B9 | 9730 |
| B10 | 10500 |
| B11 | 10600 |

The binders below were run against T1, human LIF protein (assay: ELISA (non-heated), purified IgG on antigen coated at 0.5 µg/mL, 3-fold dilutions).

| Binder | EC50 (read off the curve) [µg/mL] |
| --- | --- |
| B4 | ~0.07 |
| B5 | ~0.07 |
| B10 | ~0.07 |
| B11 | ~0.07 |

These binders were tested against T1, human LIF protein (assay: ELISA, antigen coated 0.5 ug/ml, 293S supernatant non-heated, antibody 1 ug/mL).
Protocol: as §1

| Binder | ELISA signal |
| --- | --- |
| B1 | 11700 |
| B2 | 12000 |
| B3 | 11300 |
| B4 | 11800 |
| B5 | 11800 |
| B6 | 11800 |
| B7 | 12100 |
| B8 | 11400 |
| B9 | 12000 |
| B10 | 11900 |
| B11 | 11400 |

What follows are binders tested against T1, human LIF protein (assay: ELISA (heated), antibody kept at 70 °C for 5 min before the ELISA, antigen coated at 0.5 µg/mL).

| Binder | EC50 (read off the curve) [µg/mL] |
| --- | --- |
| B4 | ~0.3 |
| B5 | ~0.1 |
| B10 | ~0.3 |
